Reference: US10081665B2, “Peptides and combination of peptides for use in immunotherapy against various tumors” (immatics biotechnologies GmbH, priority 2015, dated 2018)

Molecular target: HLA-A*02:01 (Homo sapiens, UniProt P04439, D140Y/D185E/D98H/E176V/E277Q/G131W/G231S/I119V/I121R/I166T/I218V/L300P/L318F/N151K/N90K/P208A/P217A/Q86G/Q94H/R138H/R169H/T345S)
Experiment: MHC binding assay (UV-ligand exchange, beta2m ELISA)
Conditions: binding to HLA-A*02:01, β2m ELISA
Text: Candidate peptides for T cell based therapies according to the present invention were further tested for their MHC binding capacity (affinity). The individual peptide-MHC complexes were produced by UV-ligand exchange, where a UV-sensitive peptide is cleaved upon UV-irradiation, and exchanged with the peptide of interest as analyzed. Only peptide candidates that can effectively bind and stabilize the peptide-receptive MHC molecules prevent dissociation of the MHC complexes. To determine the yield of the exchange reaction, an ELISA was performed based on the detection of the light chain (β2m) of stabilized MHC complexes. The assay was performed as generally described in Rodenko et al. (Rodenko et al., 2006).
96 well MAXISorp plates (NUNC) were coated over night with 2 ug/ml streptavidin in PBS at room temperature, washed 4× and blocked for 1 h at 37° C. in 2% BSA containing blocking buffer. Refolded HLA-A*02:01/MLA-001 monomers served as standards, covering the range of 15-500 ng/ml. Peptide-MHC monomers of the UV-exchange reaction were diluted 100 fold in blocking buffer. Samples were incubated for 1 h at 37° C., washed four times, incubated with 2 ug/ml HRP conjugated anti-82m for 1 h at 37° C., washed again and detected with TMB solution that is stopped with […]. Absorption was measured at 450 nm. Candidate peptides that show a high exchange yield (preferably higher than 50%, most preferred higher than 75%) are generally preferred for a generation and production of antibodies or fragments thereof, and/or T cell receptors or fragments thereof, as they show sufficient avidity to the MHC molecules and prevent dissociation of the MHC complexes.

“227 (SEMEELPSV; listed as Homo sapiens) [compound 227]” was tested, and the “Peptide exchange (MHC class I binding score, peptide exchange yield)” value (“Peptide exchange” below) was “+ (≥10% = +)”.
“212 (MTLSEIHAV; listed as Homo sapiens) [compound 212]” was tested, and the “Peptide exchange” value was “++ (≥20% = ++)”.
In the case of “213 (ILAVDGVLSV; listed as Homo sapiens) [compound 213]”, the “Peptide exchange” value is reported as “+++ (≥50 = +++)”.
In the case of “61 (ALYPKEITL; listed as Homo sapiens) [compound 61]”, the “Peptide exchange” value is reported as “+++ (≥50 = +++)”.
With “113 (FLFLKEVKV; listed as Homo sapiens) [compound 113]” the “Peptide exchange” value was “++ (≥20% = ++)”.
For “119 (SLIEESEEL; listed as Homo sapiens) [compound 119]”, the “Peptide exchange” value was “++ (≥20% = ++)”.
With “133 (FLDGRPLTL; listed as Homo sapiens) [compound 133]” the “Peptide exchange” value was “++ (≥20% = ++)”.
“247 (NLLIDDKGTIKL; listed as Homo sapiens) [compound 247]” was tested, and the “Peptide exchange” value was “++ (≥20% = ++)”.
With “192 (TLLPSSGLVTL; listed as Homo sapiens) [compound 192]” the “Peptide exchange” value was “++ (≥20% = ++)”.
“237 (ALLEQTGDMSL; listed as Homo sapiens) [compound 237]” was tested, and the “Peptide exchange” value was “+++ (≥50 = +++)”.
In the case of “13 (RLHDENILL; listed as Homo sapiens) [compound 13]”, the “Peptide exchange” value is reported as “+++ (≥50 = +++)”.
For “235 (SLLNQPKAV; listed as Homo sapiens) [compound 235]”, the “Peptide exchange” value was “++ (≥20% = ++)”.
In the case of “217 (LLWPSSVPA; listed as Homo sapiens) [compound 217]”, the “Peptide exchange” value is reported as “+++ (≥50 = +++)”.
“16 (SLADLSLLL; listed as Homo sapiens) [compound 16]” was tested, and the “Peptide exchange” value was “+++ (≥50 = +++)”.
For “149 (NMADGQLHQV; listed as Homo sapiens) [compound 149]”, the “Peptide exchange” value was “++ (≥20% = ++)”.
In the case of “265 (FLLDKPQDLSI; listed as Homo sapiens) [compound 265]”, the “Peptide exchange” value is reported as “+++ (≥50 = +++)”.
In the case of “153 (KLVELEHTL; listed as Homo sapiens) [compound 153]”, the “Peptide exchange” value is reported as “+++ (≥50 = +++)”.
For “83 (GLLENSPHL; listed as Homo sapiens) [compound 83]”, the “Peptide exchange” value was “++ (≥20% = ++)”.
In the case of “160 (TLQEWLTEV; listed as Homo sapiens) [compound 160]”, the “Peptide exchange” value is reported as “+++ (≥50 = +++)”.
“185 (TLYQGLPAEV; listed as Homo sapiens) [compound 185]” was tested, and the “Peptide exchange” value was “++ (≥20% = ++)”.
With “37 (QIVELIEKI; listed as Homo sapiens) [compound 37]” the “Peptide exchange” value was “++ (≥20% = ++)”.
For “22 (LMYPYIYHV; listed as Homo sapiens) [compound 22]”, the “Peptide exchange” value was “+++ (≥50 = +++)”.
“6 (FLNAIETAL; listed as Homo sapiens) [compound 6]” was tested, and the “Peptide exchange” value was “++++ (≥75% = ++++)”.
“204 (SEWGSPHAAVP; listed as Homo sapiens) [compound 204]” was tested, and the “Peptide exchange” value was “+++ (≥50 = +++)”.
In the case of “229 (YLYELEHAL; listed as Homo sapiens) [compound 229]”, the “Peptide exchange” value is reported as “++ (≥20% = ++)”.
In the case of “57 (TLYPGRFDYV; listed as Homo sapiens) [compound 57]”, the “Peptide exchange” value is reported as “++ (≥20% = ++)”.
In the case of “33 (TLDRNSLYV; listed as Homo sapiens) [compound 33]”, the “Peptide exchange” value is reported as “++ (≥20% = ++)”.
“96 (ALDTTRHEL; listed as Homo sapiens) [compound 96]” was tested, and the “Peptide exchange” value was “++ (≥20% = ++)”.
With “63 (KLLPMVIQL; listed as Homo sapiens) [compound 63]” the “Peptide exchange” value was “+++ (≥50 = +++)”.
With “84 (FLLEREQLL; listed as Homo sapiens) [compound 84]” the “Peptide exchange” value was “++++ (≥75% = ++++)”.
With “176 (VQSGLRILL; listed as Homo sapiens) [compound 176]” the “Peptide exchange” value was “++ (≥20% = ++)”.
With “20 (ALVEKGEFAL; listed as Homo sapiens) [compound 20]” the “Peptide exchange” value was “++ (≥20% = ++)”.
“214 (ALFETLIQL; listed as Homo sapiens) [compound 214]” was tested, and the “Peptide exchange” value was “+++ (≥50 = +++)”.
With “277 (KLQEELNKV; listed as Homo sapiens) [compound 277]” the “Peptide exchange” value was “+++ (≥50 = +++)”.
For “100 (ALQSFEFRV; listed as Homo sapiens) [compound 100]”, the “Peptide exchange” value was “+++ (≥50 = +++)”.
With “76 (FTAEFLEKV; listed as Homo sapiens) [compound 76]” the “Peptide exchange” value was “+++ (≥50 = +++)”.
With “253 (KLLAVIHEL; listed as Homo sapiens) [compound 253]” the “Peptide exchange” value was “+++ (≥50 = +++)”.
With “123 (QTAPEEAFIKL; listed as Homo sapiens) [compound 123]” the “Peptide exchange” value was “+ (≥10% = +)”.
With “150 (VLLDMVHSL; listed as Homo sapiens) [compound 150]” the “Peptide exchange” value was “+++ (≥50 = +++)”.
With “25 (LLWGHPRVALA; listed as Homo sapiens) [compound 25]” the “Peptide exchange” value was “+++ (≥50 = +++)”.
“270 (TLLTFFHEL; listed as Homo sapiens) [compound 270]” was tested, and the “Peptide exchange” value was “+++ (≥50 = +++)”.
“251 (LLWGNLPEI; listed as Homo sapiens) [compound 251]” was tested, and the “Peptide exchange” value was “+++ (≥50 = +++)”.
In the case of “23 (ALLSPLSLA; listed as Homo sapiens) [compound 23]”, the “Peptide exchange” value is reported as “+++ (≥50 = +++)”.
In the case of “282 (SLYALHVKA; listed as Homo sapiens) [compound 282]”, the “Peptide exchange” value is reported as “++ (≥20% = ++)”.
In the case of “285 (MLLDTVQKV; listed as Homo sapiens) [compound 285]”, the “Peptide exchange” value is reported as “+++ (≥50 = +++)”.
With “71 (HMSGKLTNV; listed as Homo sapiens) [compound 71]” the “Peptide exchange” value was “++ (≥20% = ++)”.
For “199 (SVADLAHVL; listed as Homo sapiens) [compound 199]”, the “Peptide exchange” value was “++ (≥20% = ++)”.
